Reference: IntAct's records for PubMed 25730778

B1: Protein argonaute (Schizosaccharomyces pombe (strain ATCC 38366 / 972)), O74957 (parent)
chain: MSYKPSSEIALRPGYGGLGKQITLKANFFQIISLPNETINQYHVIVGDGSRVPRKQSQLIWNSKEVKQYFGSSWMNSVYDGRSMCWSKGDIADGTIKVNIGSESHPREIEFSIQKSSKINLHTLSQFVNSKYSSDPQVLSSIMFLDLLLKKKPSETLFGFMHSFFTGENGVSLGGGVEAWKGFYQSIRPNQGFMSVNVDISSSAFWRNDSLLQILMEYTDCSNVRDLTRFDLKRLSRKFRFLKVTCQHRNNVGTDLANRVYSIEGFSSKSASDSFFVRRLNGEEQKISVAEYFLENHNVRLQYPNLPCILVKNGAMLPIEFCFVVKGQRYTAKLNSDQTANMIRFAVQRPFERVQQIDDFVHQMDWDTDPYLTQYGMKIQKKMLEVPARVLETPSIRYGGDCIERPVSGRWNLRGKRFLDPPRAPIRSWAVMCFTSTRRLPMRGIENFLQTYVQTLTSLGINFVMKKPPVLYADIRGSVEELCITLYKKAEQVGNAPPDYLFFILDKNSPEPYGSIKRVCNTMLGVPSQCAISKHILQSKPQYCANLGMKINVKVGGINCSLIPKSNPLGNVPTLILGGDVYHPGVGATGVSIASIVASVDLNGCKYTAVSRSQPRHQEVIEGMKDIVVYLLQGFRAMTKQQPQRIIYFRDGTSEGQFLSVINDELSQIKEACHSLSPKYNPKILVCTTQKRHHARFFIKNKSDGDRNGNPLPGTIIEKHVTHPYQYDFYLISHPSLQGVSVPVHYTVLHDEIQMPPDQFQTLCYNLCYVYARATSAVSLVPPVYYAHLVSNLARYQDVTADDTFVETSEASMDQEVKPLLALSSKLKTKMWYM
partner: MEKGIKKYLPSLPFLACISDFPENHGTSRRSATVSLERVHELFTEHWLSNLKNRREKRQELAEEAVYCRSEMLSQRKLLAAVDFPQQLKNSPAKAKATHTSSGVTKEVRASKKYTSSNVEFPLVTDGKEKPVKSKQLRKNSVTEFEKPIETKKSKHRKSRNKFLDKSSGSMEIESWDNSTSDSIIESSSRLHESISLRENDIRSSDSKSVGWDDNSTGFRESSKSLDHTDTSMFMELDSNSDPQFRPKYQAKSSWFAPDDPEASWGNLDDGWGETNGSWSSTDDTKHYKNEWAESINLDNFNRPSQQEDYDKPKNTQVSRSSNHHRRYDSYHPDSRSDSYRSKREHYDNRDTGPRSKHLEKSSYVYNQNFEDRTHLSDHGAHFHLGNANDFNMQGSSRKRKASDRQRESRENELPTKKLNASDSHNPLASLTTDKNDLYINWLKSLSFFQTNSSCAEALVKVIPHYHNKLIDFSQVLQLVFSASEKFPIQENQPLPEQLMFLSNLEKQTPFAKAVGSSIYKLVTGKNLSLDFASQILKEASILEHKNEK

Variants of: B1
Details: with tas3_schpo tas3, O94687

| effect of a mutation on the interaction | Variant |
| --- | --- |
| disrupting interaction strength | R773E |
| disrupting interaction strength | F276A;R773E |
